Assay results published in publication PMC9576894.

Biological target: MUC4 glycopeptide
Experiment: peptide or protein array; glycan microarray, components printed on epoxy slides; re-expressed antibody in solution at four concentrations from 1.5 to 100 μg/ml on the 873-component array; PBS pH 7.4, 0.05% Tween-20, 3% BSA; 37 °C, 3.5 h; detected with Cy3 anti-human IgG; apparent KD estimated by the method of Gordus and MacBeath

Kd: > 1000 nM
B1: ADI-47299 (antibody, V domains shown)
VH: QVQLVQSGGGVVQPGRSLRLSCAASGFTFRLYSMHWVRQAPGKGLEWVGVISHTVTDKLYADSVKGRFSVSRDNSKNTLFLQMDSLRAEDTAVYYCARDGFDYWGQGTLVTVSS
VL: EIVMTQSPLSLPVTLGQPASISCKSSQSLVYSDGDTYLNWFQQRPGQSPRRLIYKVSKRDSGVPDRFSGSGSGTDFTLKISRVEAEDLGVYYCMQGTHWPLTFGPGTKLEIK
